In patent publication US20260193366A1 (APOGEE THERAPEUTICS, published 2026):
Numbering of substitutions follows the chain as printed.

T1: hIL-4Rα on cells (human, UniProt P24394 26-825)
T1 sequence: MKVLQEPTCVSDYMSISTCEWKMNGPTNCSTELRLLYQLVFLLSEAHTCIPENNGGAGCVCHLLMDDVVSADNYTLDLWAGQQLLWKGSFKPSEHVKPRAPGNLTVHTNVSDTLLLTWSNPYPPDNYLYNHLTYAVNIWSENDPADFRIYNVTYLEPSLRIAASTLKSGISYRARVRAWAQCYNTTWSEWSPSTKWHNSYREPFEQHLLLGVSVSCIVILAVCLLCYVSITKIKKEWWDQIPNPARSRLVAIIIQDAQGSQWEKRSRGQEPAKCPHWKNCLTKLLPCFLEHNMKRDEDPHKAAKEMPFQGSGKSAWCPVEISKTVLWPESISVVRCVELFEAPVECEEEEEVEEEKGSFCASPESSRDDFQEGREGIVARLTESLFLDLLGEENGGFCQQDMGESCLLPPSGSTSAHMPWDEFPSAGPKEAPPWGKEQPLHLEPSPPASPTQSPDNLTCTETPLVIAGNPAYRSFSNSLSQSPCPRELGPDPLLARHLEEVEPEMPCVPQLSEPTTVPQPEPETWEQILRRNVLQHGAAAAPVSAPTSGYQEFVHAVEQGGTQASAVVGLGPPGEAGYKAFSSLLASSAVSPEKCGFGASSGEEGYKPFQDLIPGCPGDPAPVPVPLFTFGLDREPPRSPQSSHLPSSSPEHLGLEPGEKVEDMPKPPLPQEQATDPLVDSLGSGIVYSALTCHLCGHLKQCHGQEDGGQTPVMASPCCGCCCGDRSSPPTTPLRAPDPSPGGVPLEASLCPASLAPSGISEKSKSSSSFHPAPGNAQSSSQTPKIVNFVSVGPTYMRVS

T2: human IL-4Rα (human, UniProt P24394 26-232)
T2 construct: also called Hu IL-4Rα; hIL-4Rα
T2 sequence: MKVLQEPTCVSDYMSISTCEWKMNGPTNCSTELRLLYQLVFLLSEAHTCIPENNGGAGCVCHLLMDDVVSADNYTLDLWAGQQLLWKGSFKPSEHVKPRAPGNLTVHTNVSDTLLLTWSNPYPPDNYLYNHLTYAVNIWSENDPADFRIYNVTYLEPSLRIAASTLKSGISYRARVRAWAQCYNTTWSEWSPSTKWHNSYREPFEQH

T3: cynomolgus monkey IL-4Rα (cynomolgus monkey, UniProt P24394 26-231 (human entry), limits assumed)
T3 construct: also called Cyno IL-4Rα; cyIL-4Rα
T3 chain: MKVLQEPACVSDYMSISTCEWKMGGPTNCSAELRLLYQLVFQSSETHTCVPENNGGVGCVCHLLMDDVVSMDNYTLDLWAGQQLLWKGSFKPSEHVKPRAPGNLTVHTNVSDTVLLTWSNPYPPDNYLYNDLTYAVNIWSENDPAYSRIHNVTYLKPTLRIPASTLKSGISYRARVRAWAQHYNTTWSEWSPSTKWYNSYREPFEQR

B1: Construct 13 (mAb422) (antibody, IgG4, V domains shown)
VH: EVQLVESGGGLEQPGGSLRLSCAGSGFTFRDFAMTWVRQAPGKGLEWVSSVSGSGGNTYYADSVKGRFTISRDNSKNTLYLQMNSLRAEDTAVYYCAKDRLSVTVRPRYYGLDVWGQGTTVTVSS
VL: DIVMTQSPLSLPVTPGEPASISCRSSQSVLYSIGYNYVDWYLQKSGQSPQLLIYLGNKRASGVPDRFSGSGSGTDFTLKISRVEAEDVGFYYCMQSLTSPYTFGQGTKLEIK
notes: VH/VL only
B2: Construct 32 (mAb446) (antibody, IgG4, V domains shown)
VH: B1 VH with S54D
VL: B1 VL with V29L, I33N, V38L, G56S, N57S, K58N, S96A, L97F, T98Q, S99A
notes: VH/VL only
B3: Construct 30 (mAb439) (antibody, IgG4, V domains shown)
VH: B1 VH with F32Y, V51I, V103I, V105I
VL: DIVMTQSPLSLPVTPGEPASISCRSSQSLLYSNRNNYLDWYLQKSGQSPQLLIYSASIRASGVPDRFSGSGSGTDFTLKISRVEAEDVGFYYCMQAFQAPYTFGQGTKLEIK
notes: VH/VL only
B4: Construct 40 (mAb476) (antibody, IgG4, V domains shown)
VH: B1 VH with S54D, V103K, V105I
VL: B1 VL with S96A, L97Y, T98Q, T102V
notes: VH/VL only
B5: Construct 42 (mAb481) (antibody, IgG4, V domains shown)
VH: B1 VH with D31T, F32Y, V51I, S54D, G56S, L101V, V103I, V105I
VL: B1 VL with R24T, S25A, V29L, S96A, S99T
notes: VH/VL only
B6: Construct 45 (mAb494) (antibody, IgG4, V domains shown)
VH: B1 VH with V51I, G56D, N57G, L101V, V103I, V105I
VL: B1 VL with R24T, S25A, V29L, K58N, S61T, T98Q, S99T
notes: VH/VL only
B7: Construct 15 (mAb423) (antibody, IgG4, V domains shown)
VH: B1 VH with V51I, T58I, V103K, V105I
VL: B1 VL with R24T, S25A, V29L
notes: VH/VL only
B8: Construct 41 (mAb478) (antibody, IgG4, V domains shown)
VH: B1 VH with V51I, S54G, L101V, V103I, V105I
VL: B1 VL with R24T, S25A, V29L, S96A, L97Y, T98N
notes: VH/VL only
B9: Construct 43 (mAb482) (antibody, IgG4, V domains shown)
VH: B1 VH with V51I, S54G, V103I, T104A
VL: B1 VL with R24T, V29L, N57S
notes: VH/VL only
B10: Construct 44 (mAb485) (antibody, IgG4, V domains shown)
VH: B1 VH with V51I, T58I, V103K, V105I
VL: B1 VL with S26T, V29L, Y35K, L55E, K58N
notes: VH/VL only
B11: Construct 46 (mAb501) (antibody, IgG4, V domains shown)
VH: B1 VH with F32S, V51I, G56D, N57G, V103I, T104Y, V105I
VL: B1 VL with R24T, V29L, S96A, T98Q, S99T
notes: VH/VL only

biological target: T1, hIL-4Rα on cells; test: cell-based or functional assay

Relative Inhibition of IL-4 induced TARC IC50 | Relative Inhibition of IL-13 induced TARC IC50 | Binder
0.507 relative to dupilumab | 1.01 relative to dupilumab | B1
4.36 relative to dupilumab | 2.4 relative to dupilumab | B2
0.68 relative to dupilumab | 0.592 relative to dupilumab | B3
1.6 relative to dupilumab | 4.7 relative to dupilumab | B4
2.02 relative to dupilumab | 1.62 relative to dupilumab | B5
3.09 relative to dupilumab | 14.5 relative to dupilumab | B6
0.453 relative to dupilumab | 0.35 relative to dupilumab | B7
1.53 relative to dupilumab | 1.35 relative to dupilumab | B8
1.56 relative to dupilumab | 2.3 relative to dupilumab | B9
2.53 relative to dupilumab | 5.72 relative to dupilumab | B10
2.49 relative to dupilumab | 4.66 relative to dupilumab | B11

biological target: T1, hIL-4Rα on cells; test: cell-based or functional assay; remark: another data set of the same source

Relative Inhibition of IL-4 induced TF-1 Proliferation IC50 | Relative Inhibition of IL-13 induced TF-1 Proliferation IC50 | Binder
0.675 relative to dupilumab | 0.794 relative to dupilumab | B1
1.74 relative to dupilumab | 2.01 relative to dupilumab | B2
0.387 relative to dupilumab | 0.917 relative to dupilumab | B3
0.968 relative to dupilumab | 1.01 relative to dupilumab | B4
1.19 relative to dupilumab | 1.19 relative to dupilumab | B5
1.68 relative to dupilumab | 1.79 relative to dupilumab | B6
0.281 relative to dupilumab | 0.71 relative to dupilumab | B7
0.82 relative to dupilumab | 1.15 relative to dupilumab | B8
1.13 relative to dupilumab | 0.941 relative to dupilumab | B9
1.15 relative to dupilumab | 1.29 relative to dupilumab | B10
1.29 relative to dupilumab | 1.28 relative to dupilumab | B11

biological target: T1, hIL-4Rα on cells; test: FACS on HEK293 cells, competitor biotin-hIL-13;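 note: stably transduced cells co-expressing both receptor chains, stained cold, with cell-bound signal read as mean fluorescence intensity by flow cytometry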

Relative Blockade of IL-13 Binding IC50 | Binder
0.882 relative to dupilumab | B1
1.14 relative to dupilumab | B2
0.958 relative to dupilumab | B3
1.19 relative to dupilumab | B4
1.34 relative to dupilumab | B5
1.01 relative to dupilumab | B6
0.876 relative to dupilumab | B7
1.15 relative to dupilumab | B8
1.13 relative to dupilumab | B9
1.23 relative to dupilumab | B10
1.02 relative to dupilumab | B11

biological target: T2, human IL-4Rα; test: SPR, Carterra LSA;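 note: antibodies captured on an anti-human Fc sensor chip, antigen injected at several concentrations, association and dissociation rates fitted with a 1:1 Langmuir model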
Experimental: (§1) Binding affinity (KD) of antibodies to human and cynomolgus monkey IL-4Rα was determined through surface plasmon resonance (SPR) using a Carterra LSA. Briefly, an HC30M sensor chip that was previously functionalized with a polyclonal mixture of goat anti-human Fc antibody and used to capture purified antibodies at a level between 100-1000 RLU. […] Regeneration of the chip between different concentrations of antigen was performed with 200 mM phosphoric acid and antibody was captured again as previously described. Association and dissociation rate constants were subsequently determined through fitting to a 1:1 Langmuir binding model using the Kinetics Software from Carterra from which a KD value was derived.

KD Relative to Dupilumab | Kd | Binder
0.65 | 0.00737 nM | B1
1.04 | 0.0118 nM | B2
0.98 | 0.011 nM | B3
1.11 | 0.0126 nM | B4
0.98 | 0.0111 nM | B5
0.96 | 0.0109 nM | B6
1.21 | 0.0137 nM | B7
0.86 | 0.00973 nM | B8
0.84 | 0.00943 nM | B9
1.11 | 0.0125 nM | B10
0.97 | 0.011 nM | B11

Biological target: T3, cynomolgus monkey IL-4Rα
Test: SPR, Carterra LSA;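 note: antibodies captured on an anti-human Fc sensor chip, antigen injected at several concentrations, association and dissociation rates fitted with a 1:1 Langmuir model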
Experimental: as §1

KD Relative to Dupilumab | Kd | Binder
0.02 | 12.6 nM | B1
1.58 | 993 nM | B2
0.2 | 128 nM | B3
0.22 | 136 nM | B4
0.25 | 158 nM | B5
0.31 | 192 nM | B6
0.04 | 24.6 nM | B7
0.39 | 248 nM | B8
0.24 | 150 nM | B9
2.03 | 1280 nM | B10
0.36 | 228 nM | B11

biological target: T1, hIL-4Rα on cells; test: cell-based or functional assay; remark: another data set of the same source

Relative Inhibition of IL-4 induced pSTAT6 IC50 | Relative Inhibition of IL-13 induced pSTAT6 IC50 | Binder
0.415 relative to dupilumab | 0.824 relative to dupilumab | B1
1.68 relative to dupilumab | 4.76 relative to dupilumab | B2
1.09 relative to dupilumab | 0.781 relative to dupilumab | B3
0.633 relative to dupilumab | 1.89 relative to dupilumab | B4
0.81 relative to dupilumab | 2.78 relative to dupilumab | B5
1.25 relative to dupilumab | 4.61 relative to dupilumab | B6
0.285 relative to dupilumab | 0.468 relative to dupilumab | B7
1.18 relative to dupilumab | 1.97 relative to dupilumab | B8
0.633 relative to dupilumab | 2.29 relative to dupilumab | B9
1.18 relative to dupilumab | 3.76 relative to dupilumab | B10
1.04 relative to dupilumab | 3.6 relative to dupilumab | B11

biological target: T1, hIL-4Rα on cells; test: FACS on HEK293 cells, competitor biotin-hIL-4;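 note: HEK293 cells stably co-expressing hIL-13Rα and hIL-4Rα, stained for 1 h at 4 °C, read-out as mean fluorescence intensity by flow cytometry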
Experimental: Briefly, HEK293 previously transduced to stably express both hIL-13Rα and hIL-4Rα were cultured and harvested. Cells were seeded at 200,000 cells in 100 uL per well. Cells were washed and the supernatant discarded. […] The cells were stained in this mixture at 4° C. for 1 hour. […] Cells were incubated 4° C. for 1 hour, protected from light. Cells were then washed and the MFI of cells in each well were recorded by FACS using a BD FACSCanto II. Subsequent data were analyzed using GraphPad Prism.

Relative Blockade of IL-4 Binding IC50 | Binder
1.02 relative to dupilumab | B1
1.36 relative to dupilumab | B2
0.863 relative to dupilumab | B3
1.16 relative to dupilumab | B4
1.32 relative to dupilumab | B5
1.08 relative to dupilumab | B6
0.66 relative to dupilumab | B7
1.09 relative to dupilumab | B8
1.02 relative to dupilumab | B9
1.21 relative to dupilumab | B10
1.22 relative to dupilumab | B11

biological target: T2, human IL-4Rα; test: KinExA
Experimental: Binding affinity (KD) of exemplary antibodies to human IL-4Rα was determined using the Kinetic Exclusion Assay (KinExA). Briefly, antibody and recombinant human IL-4Rα were equilibrated in solution. […] Samples were incubated for a time period ranging from 3.5 hours to 340 hours, to fully reach equilibrium. Once samples reached equilibrium, azlactone beads previously coated with recombinant human IL-4Rα were used to capture any free antibody from the equilibrated solution. […] The KinExA 4000 instrument was used to capture fluorescent signal and convert to a voltage signal that is directly proportional to the amount of free antibody in all the equilibrated samples, allowing for the determination of the apparent affinity of the antibody.

KD Relative to Dupilumab | Kd | Binder
0.267 | 0.299 pM | B1
0.01 | 0.0109 pM | B7
